# Test results reported in PMC10646970.
# Target: PD-L1 (programmed cell death ligand 1), N-terminal domain
substance,measurement,value
wild-type (natural) PD-1 (from UniProt Q15116 25-170) (natural protein),"increase in IFN-gamma production in MDA-MB-231/PBMC coculture, 10 ug/mL protein, 48 h, ELISA; PD-L1 is that on the tumour cells; pair blocked: PD-1 on PBMCs / PD-L1",92%
